According to US20260242478A1 (published 2026):

These binders were tested against T1, PSMA Fab (006 PSMA Fab) (assay: clonal phage ELISA on captured PSMA Fab, wells pre-incubated with PSMA antigen as competitor).
T1 construct: also called Anti-PSMA Fab; anti-PSMA Fab
Method: (§1) Clonal phage were harvested as crude supernatants and screened via standard ELISAs. […] Prior to the addition of clonal phage. wells were incubated with blocking buffer and PSMA antigen or blocking buffer alone. Without washing or aspirating, clonal phage supernatants were then added to the wells and incubated for a short time. Wells were then washed followed by detection of bound phage using a horse radish conjugated anti-M13 antibody.

In order of rising “phage binding ELISA signal on anti-PSMA Fab in presence of PSMA” value:
1. VDVRCMPLWMCSGF [Phage-3645 (Peptide-180 library clone)]  0.0628
2. PLVLCIPQWMCQAM [Phage-3648 (Peptide-180 library clone)]  0.0663
3. LQTLCIPPWMCMGF [Phage-3649 (Peptide-180 library clone)]  0.0685
4. SVVMCVPEWMCQGF [Phage-3651 (Peptide-180 library clone)]  0.0734
5. MVPVCIPLWMCSGF [Phage-3647 (Peptide-180 library clone)]  0.0744
6. PSAVCVPTWMCSGF [Phage-3652 (Peptide-180 library clone)]  0.0815
7. EQVLCRPAWMCLGF [Phage-3650 (Peptide-180 library clone)]  0.0974
8. TAVMCIPYWMCGGM [Phage-3646 (Peptide-180 library clone)]  0.104

Each binder was assayed against T2, PSMA Fab (SEQ ID NOs: 19, 20) (biotinylated (site not stated)) (assay: clonal phage ELISA on captured biotinylated PSMA Fab, anti-M13-HRP detection, no PSMA antigen).
T2 construct: In the phage ELISA the biotinylated PSMA Fab was captured on neutravidin coated plates; also called Anti-PSMA Fab; 006 PSMA Fab

In order of falling “phage binding ELISA signal” value:
1. ELILCRPSWMCTGL [Phage-3632]  1.54
2. LVNYCIPPWMCAGF [Phage-3631]  1.54
3. SHALCRPAWMCMGL [Phage-3633]  1.54
4. GTTWCVPTWMCEGL [Phage-3634]  1.54
5. AEVKCIPTWMCTGF [Phage-3637]  1.53
6. FPAMCKPSWMCTGF [Phage-3640]  1.53
7. YPPLCVPMWMCNGF [Phage-3639]  1.53
8. EVAMCKPLWMCSGF [Phage-3635]  1.53
9. VHQLCIPVWMCSGF [Phage-3638]  1.53
10. SNMVCIPSWMCNGF [Phage-3641]  1.53
11. VEPLCRPTWMCMSL [Phage-3636]  1.53
12. PNILCKPQWMCAGF [Phage-3644]  1.52
13. VTMKCQPMWMCQGL [Phage-3642]  1.52
14. ADRVCKPAWMCDLF [Phage-3643]  1.52

What follows are binders tested against T1, PSMA Fab (006 PSMA Fab) (assay: clonal phage ELISA on biotinylated PSMA Fab captured on neutravidin, blocking buffer alone, anti-M13 HRP detection;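 note: clonal phage were tested as crude supernatants, and the signal reflects phage still bound to the wells after washing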).
Method: as §1

In order of rising “phage binding ELISA signal on anti-PSMA Fab” value:
1. SVVMCVPEWMCQGF [Phage-3651 (Peptide-180 library clone)]  1.5
2. LQTLCIPPWMCMGF [Phage-3649 (Peptide-180 library clone)]  1.5
3. PSAVCVPTWMCSGF [Phage-3652 (Peptide-180 library clone)]  1.5
4. EQVLCRPAWMCLGF [Phage-3650 (Peptide-180 library clone)]  1.5
5. MVPVCIPLWMCSGF [Phage-3647 (Peptide-180 library clone)]  1.51
6. PLVLCIPQWMCQAM [Phage-3648 (Peptide-180 library clone)]  1.51
7. TAVMCIPYWMCGGM [Phage-3646 (Peptide-180 library clone)]  1.52
8. VDVRCMPLWMCSGF [Phage-3645 (Peptide-180 library clone)]  1.52

Each binder was assayed against T2, PSMA Fab (SEQ ID NOs: 19, 20) (assay: clonal phage ELISA on captured biotinylated PSMA Fab, anti-M13-HRP detection, competitor: PSMA antigen pre-incubated).
Method: as §1

In order of falling “phage binding ELISA signal” value:
1. YPPLCVPMWMCNGF [Phage-3639]  0.107
2. VHQLCIPVWMCSGF [Phage-3638]  0.0996
3. LVNYCIPPWMCAGF [Phage-3631]  0.093
4. PNILCKPQWMCAGF [Phage-3644]  0.0825
5. FPAMCKPSWMCTGF [Phage-3640]  0.082
6. AEVKCIPTWMCTGF [Phage-3637]  0.079
7. SHALCRPAWMCMGL [Phage-3633]  0.0783
8. GTTWCVPTWMCEGL [Phage-3634]  0.077
9. VEPLCRPTWMCMSL [Phage-3636]  0.0766
10. SNMVCIPSWMCNGF [Phage-3641]  0.0754
11. VTMKCQPMWMCQGL [Phage-3642]  0.0738
12. EVAMCKPLWMCSGF [Phage-3635]  0.069
13. ELILCRPSWMCTGL [Phage-3632]  0.0672
14. ADRVCKPAWMCDLF [Phage-3643]  0.0527
